Consider 2 molecules from patent US20250248376A1 (University of Texas, published 2025).

For this test, the target named is T1, Contactin (mouse Cntn1) (mouse, UniProt P12960 21-1001).
T1 construct: whole, on cells; One entry covers both endogenous spinal cord Contactin and Contactin transfected into HEK cells; It was immunoprecipitated from lysates with anti-Contactin antibodies; also called Contactin/F3
T1 sequence (looked up): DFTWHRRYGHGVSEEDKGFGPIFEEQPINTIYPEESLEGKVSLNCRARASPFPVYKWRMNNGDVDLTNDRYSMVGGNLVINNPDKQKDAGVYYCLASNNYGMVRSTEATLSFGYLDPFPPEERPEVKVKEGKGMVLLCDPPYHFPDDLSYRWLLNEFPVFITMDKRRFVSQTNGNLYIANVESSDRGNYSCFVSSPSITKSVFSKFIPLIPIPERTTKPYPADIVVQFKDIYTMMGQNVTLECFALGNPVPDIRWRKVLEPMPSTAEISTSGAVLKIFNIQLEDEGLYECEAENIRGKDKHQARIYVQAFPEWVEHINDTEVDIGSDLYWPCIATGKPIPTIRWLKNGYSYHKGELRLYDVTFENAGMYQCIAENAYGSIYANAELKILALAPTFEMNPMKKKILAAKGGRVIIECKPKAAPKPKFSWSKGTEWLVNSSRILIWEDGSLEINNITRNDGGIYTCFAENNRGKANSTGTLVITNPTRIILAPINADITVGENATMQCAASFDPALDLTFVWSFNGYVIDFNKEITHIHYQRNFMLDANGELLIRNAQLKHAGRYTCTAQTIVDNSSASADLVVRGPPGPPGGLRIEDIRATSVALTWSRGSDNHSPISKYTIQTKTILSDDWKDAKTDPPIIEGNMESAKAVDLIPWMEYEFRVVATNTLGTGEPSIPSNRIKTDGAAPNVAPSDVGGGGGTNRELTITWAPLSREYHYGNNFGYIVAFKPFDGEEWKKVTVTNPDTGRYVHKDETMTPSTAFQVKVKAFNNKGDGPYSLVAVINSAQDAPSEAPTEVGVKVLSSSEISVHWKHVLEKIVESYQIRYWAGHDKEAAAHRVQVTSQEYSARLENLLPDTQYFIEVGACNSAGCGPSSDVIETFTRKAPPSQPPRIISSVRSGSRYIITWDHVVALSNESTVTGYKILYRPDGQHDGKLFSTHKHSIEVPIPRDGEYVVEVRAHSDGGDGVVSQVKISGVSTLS
The test can be described thus: co-IP with anti-Contactin antibodies from lysates of HEK cells co-transfected with Contactin, immunoblot for Cntnap1 (FIG. 17J). The source says:
After confirming the mutations, the wild-type Cntnap1, Cntnap1C^C324R or […] cDNAs and Contactin cDNA (MG50933-CF, SinoBiological) were co-transfected into HEK cells. Contactin surface expression was examined by immunostaining of live, non-permeabilized HEK cells followed by fixation and permeabilization and immunostaining with an anti-Cntnap1 antibody to detect the expression of Cntnap1. The wild-type Cntnap1 protein was readily localized at the cell surface of the HEK cells (FIGS. 17Ga, c), however, the surface localization of Cntnap1^C324R (FIGS. 17Ha, c), and Cntnap1^R765c (FIGS. 17Ia, c) mutant proteins was strongly affected. […] The Cntnap1 protein expression was mostly cytosolic in both Cntnap1^C324R or Cntnap1^R765C transfected HEK cells as was the Contactin localization. […] IP of cell lysates from HEK cells that co-expressed the wild-type Cntnap1, Cntnap1^C324R and Cntnap1^R765C proteins and Contactin was also carried out. The expression levels of these proteins were similar in HEK cells transfected with respective expression constructs (FIG. 17J, input).
(Immunoblotting shows a protein as a band on a membrane.)

B1: Cntnap1^C324R mutant expressed in HEK cells (site-directed mutant of pCMV-Cntnap1^Flag) (receptor)
chain: WGYYGCNEELVGPLYARSLGASSYYGLFTTARFARLHGISGWSPRIGDPNPWLQIDLMKKHRIRAVATQGAFNSWDWVTRYMLLYGDRVDSWTPFYQKGHNATFFGNVNDSAVVRHDLHYHFTARYIRIVPLAWNPRGKIGLRLGIYGCPYTSSILYFDGDDAISYRFQRGASQSLWDVFAFSFKTEEKDGLLLHTEGSQGDYVTLELQGAHLLLHMSLGSSPIQPRPGHTTVSLGGVLNDLSWHYVRVDRYGRDANFTLDGYAHHFVLNGDFERLNLENEIFIGGLVGAARKNLAYRHNFRGRIENVIYNRINIAEMAVMRHSRITFEGNVAFRCLDPVPHPINFGGPHNFVQVPGFPRRGRLAVSFRFRTWDLTGLLLFSHLGDGLGHVELMLSEGQVNVSIAQTGRKKLQFAAGYRLNDGFWHEVNFVAQENHAVISIDDVEGAEVRVSYPLLIRTGTSYFFGGCPKPASRWGCHSNQTAFHGCMELLKVDGQLVNLTLVEFRKLGYFAEVLFDTCGITDRCSPNMCEHDGRCYQSWDDFICYCELTGYKGVTCHEPLYKESCEAYRLSGKYSGNYTIDPDGSGPLKPFVVYCDIRENRAWTVVRHDRLWTTRVTGSSMDRPFLGAIQYWNASWEEVSALANASQHCEQWIEFSCYNSRLLNTAGGYPYSFWIGRNEEQHFYWGGSQPGIQRCACGLDQSCVDPALHCNCDADQPQWRTDKGLLTFVDHLPVTQVVVGDTNRSNSEAQFFLRPLRCYGDRNSWNTISFHTGAALRFPPIRANHSLDVSFYFRTSAPSGVFLENMGGPFCRWRRPYVRVELNTSRDVVFAFDIGNGDENLTVHSDDFEFNDDEWHLVRAEINVKQARLRVDHRPWVLRPMPLQTYIWLVYDQPLYVGSAELKRRPFVGCLRAMRLNGVTLNLEGRANASEGTFPNCTGHCTHPRFPCFHGGRCVERYSYYTCDCDLTAFDGPYCNHDIGGFFETGTWMRYNLQSALRSAAREFSHMLSRPVPGYEPGYVPGYDTPGYVPGYHGPGYRLPEYPRPGRPVPGYRGPVYNVTGEEVSFSFSTNSAPAVLLYVSSFVRDYMAVLIKEDGTLQLRYQLGTSPYVYQLTTRPVTDGQPHSVNITRVYRNLFIQVDYFPLTEQKFSLLVDSQLDSPKALYLGRVMETGVIDPEIQRYNTPGFSGCLSGVRFNNVAPLKTHFRTPRPMTAELAEAMRVQGELSESNCGAMPRLVSEVPPELDPWYLPPDFPYYHDDGWIAILLGFLVAFLLLGLVGMLVLFYLQNHRYKGSYHTNEPKATHDSHPGGKAPLPPSGPAQAPAPTPAPTQLPTPAPAPAPAPASGPGPRDQNLPQILEESRSE
notes: Co-transfected with Contactin cDNA; the co-IP was done on total cell lysates; also called Mouse Cntnap1^C324R clone; not shown: Flag tag inherited from pCMV-Cntnap1^Flag
As to B1, the “level of Cntnap1 co-immunoprecipitated with Contactin, relative to wild-type Cntnap1” value came to 60%.

B2: Cntnap1^R765C mutant expressed in HEK cells (site-directed mutant of pCMV-Cntnap1^Flag) (receptor)
chain: WGYYGCNEELVGPLYARSLGASSYYGLFTTARFARLHGISGWSPRIGDPNPWLQIDLMKKHRIRAVATQGAFNSWDWVTRYMLLYGDRVDSWTPFYQKGHNATFFGNVNDSAVVRHDLHYHFTARYIRIVPLAWNPRGKIGLRLGIYGCPYTSSILYFDGDDAISYRFQRGASQSLWDVFAFSFKTEEKDGLLLHTEGSQGDYVTLELQGAHLLLHMSLGSSPIQPRPGHTTVSLGGVLNDLSWHYVRVDRYGRDANFTLDGYAHHFVLNGDFERLNLENEIFIGGLVGAARKNLAYRHNFRGCIENVIYNRINIAEMAVMRHSRITFEGNVAFRCLDPVPHPINFGGPHNFVQVPGFPRRGRLAVSFRFRTWDLTGLLLFSHLGDGLGHVELMLSEGQVNVSIAQTGRKKLQFAAGYRLNDGFWHEVNFVAQENHAVISIDDVEGAEVRVSYPLLIRTGTSYFFGGCPKPASRWGCHSNQTAFHGCMELLKVDGQLVNLTLVEFRKLGYFAEVLFDTCGITDRCSPNMCEHDGRCYQSWDDFICYCELTGYKGVTCHEPLYKESCEAYRLSGKYSGNYTIDPDGSGPLKPFVVYCDIRENRAWTVVRHDRLWTTRVTGSSMDRPFLGAIQYWNASWEEVSALANASQHCEQWIEFSCYNSRLLNTAGGYPYSFWIGRNEEQHFYWGGSQPGIQRCACGLDQSCVDPALHCNCDADQPQWRTDKGLLTFVDHLPVTQVVVGDTNCSNSEAQFFLRPLRCYGDRNSWNTISFHTGAALRFPPIRANHSLDVSFYFRTSAPSGVFLENMGGPFCRWRRPYVRVELNTSRDVVFAFDIGNGDENLTVHSDDFEFNDDEWHLVRAEINVKQARLRVDHRPWVLRPMPLQTYIWLVYDQPLYVGSAELKRRPFVGCLRAMRLNGVTLNLEGRANASEGTFPNCTGHCTHPRFPCFHGGRCVERYSYYTCDCDLTAFDGPYCNHDIGGFFETGTWMRYNLQSALRSAAREFSHMLSRPVPGYEPGYVPGYDTPGYVPGYHGPGYRLPEYPRPGRPVPGYRGPVYNVTGEEVSFSFSTNSAPAVLLYVSSFVRDYMAVLIKEDGTLQLRYQLGTSPYVYQLTTRPVTDGQPHSVNITRVYRNLFIQVDYFPLTEQKFSLLVDSQLDSPKALYLGRVMETGVIDPEIQRYNTPGFSGCLSGVRFNNVAPLKTHFRTPRPMTAELAEAMRVQGELSESNCGAMPRLVSEVPPELDPWYLPPDFPYYHDDGWIAILLGFLVAFLLLGLVGMLVLFYLQNHRYKGSYHTNEPKATHDSHPGGKAPLPPSGPAQAPAPTPAPTQLPTPAPAPAPAPASGPGPRDQNLPQILEESRSE
notes: Co-transfected with Contactin cDNA; the co-IP was done on total cell lysates; also called Mouse Cntnap1^R765C clone; not shown: Flag tag inherited from pCMV-Cntnap1^Flag
In the case of B2, the “level of Cntnap1 co-immunoprecipitated with Contactin, relative to wild-type Cntnap1” value worked out at 10%.
